Measured values from article PMC8113721, “The lysosomal protein ABCD4 can transport vitamin B12 across liposomal membranes in vitro” (The Journal of Biological Chemistry, 2021).
Residue numbers refer to the chain shown, from its start. In names and notes the source's numbering stands.

B1: His-tagged human ABCD4 (natural protein)
chain: AVAGPAPGAGARPRLDLQFLQRFLQILKVLFPSWSSQNALMFLTLLCLTLLEQFVIYQVGLIPSQYYGVLGNKDLEGFKTLTFLAVMLIVLNSTLKSFDQFTCNLLYVSWRKDLTEHLHRLYFRGRAYYTLNVLRDDIDNPDQRISQDVERFCRQLSSMASKLIISPFTLVYYTYQCFQSTGWLGPVSIFGYFILGTVVNKTLMGPIVMKLVHQEKLEGDFRFKHMQIRVNAEPAAFYRAGHVEHMRTDRRLQRLLQTQRELMSKELWLYIGINTFDYLGSILSYVVIAIPIFSGVYGDLSPAELSTLVSKNAFVCIYLISCFTQLIDLSTTLSDVAGYTHRIGQLRETLLDMSLKSQDCEILGESEWGLDTPPGWPAAEPADTAFLLERVSISAPSSDKPLIKDLSLKISEGQSLLITGNTGTGKTSLLRVLGGLWTSTRGSVQMLTDFGPHGVLFLPQKPFFTDGTLREQVIYPLKEVYPDSGSADDERILRFLELAGLSNLVARTEGLDQQVDWNWYDVLSPGEMQRLSFARLFYLQPKYAVLDEATSALTEEVESELYRIGQQLGMTFISVGHRQSLEKFHSLVLKLCGGGRWELMRIKVE
notes: ABCD4 (ABC transporter subfamily D member 4), human; also called His-ABCD4; wildtype ABCD4; source: also reconstituted in liposomes
B2: His-ABCD4 (Y319C) (natural protein, human)
chain: B1 chain with Y318C
notes: ABCD4, human, with the clinical missense mutation Y319C; Y319C is a clinical mutation reported in cobalamin deficiency; source: K. phaffii, purified and reconstituted in liposomes using the same procedure as used for His-ABCD4
B3: glutathione-S-transferase (GST)–tagged LMBD1 (natural protein, human, UniProt Q9NUN5 1-540, looked up)
chain: MATSGAASAELVIGWCIFGLLLLAILAFCWIYVRKYQSRRESEVVSTITAIFSLAIALITSALLPVDIFLVSYMKNQNGTFKDWANANVSRQIEDTVLYGYYTLYSVILFCVFFWIPFVYFYYEEKDDDDTSKCTQIKTALKYTLGFVVICALLLLVGAFVPLNVPNNKNSTEWEKVKSLFEELGSSHGLAALSFSISSLTLIGMLAAITYTAYGMSALPLNLIKGTRSAAYERLENTEDIEEVEQHIQTIKSKSKDGRPLPARDKRALKQFEERLRTLKKRERHLEFIENSWWTKFCGALRPLKIVWGIFFILVALLFVISLFLSNLDKALHSAGIDSGFIIFGANLSNPLNMLLPLLQTVFPLDYILITIIIMYFIFTSMAGIRNIGIWFFWIRLYKIRRGRTRPQALLFLCMILLLIVLHTSYMIYSLAPQYVMYGSQNYLIETNITSDNHKGNSTLSVPKRCDADAPEDQCTVTRTYLFLHKFWFFSAAYYFGNWAFLGVFLIGLIVSCCKGKKSVIEGVDEDSDISDDEPSVYSA
notes: LMBD1 (lysosomal membrane protein encoded by LMBRD1), human; GST itself can dimerise; the dimer seen by cross-linking is of the GST fusion; also called LMBD1–GST; source: also reconstituted in liposomes with His-ABCD4
B4: His-ABCD4 (N141K) (natural protein, human)
chain: B1 chain with N140K
notes: ABCD4, human, with the clinical missense mutation N141K; N141K is a clinical mutation reported in cobalamin deficiency; source: K. phaffii, purified and reconstituted in liposomes using the same procedure as used for His-ABCD4

Legend:
[1] = target: the molecule itself; assay: SEC; purified His-ABCD4 solubilized in β-DDM; size exclusion chromatography, polydisperse profile with a ∼360 kDa major peak
[2] = target: the molecule itself; assay: not stated; mutant His-ABCD4 reconstituted in liposomes (Fig. S11B); the text does not name the method
His-tagged human ABCD4 = target: B1; assay: cross-linking; purified His-ABCD4 and LMBD1–GST mixed; SDA and m-maleimidobenzoyl-N-hydroxysuccinimide ester (2 mM each), UV irradiation; immunoblot; details: both partners purified
[3] = target: the molecule itself; assay: as above

In the case of B1, the “stoichiometry N” value [1] is reported as 2.

B2 was tested, and the “stoichiometry N” value [2] was 2.

B3 was tested, and the “stoichiometry N” value (His-tagged human ABCD4) was 1 and the “stoichiometry N” value [3] was 2.

In the case of B4, the “stoichiometry N” value [2] is reported as 2.
